The values that follow are results of earlier work, collected in patent US20050181485A1, “Cellulose digesting enzyme gene and utilization of the gene” (priority 2002, published 2005).

Where two headings read alike, the source gives them in different places.

For this series the following is noted: known cellobiose dehydrogenases.

B1: Phanerochaete chrysosporium: known cellobiose dehydrogenase reported by Henriksson et al. (protein, UniProt Q01738 19-773, looked up)
Cellobiose dehydrogenase: QSASQFTDPTTGFQFTGITDPVHDVTYGFVFPPLATSGAQSTEFIGEVVAPIASKWIGIALGGAMNNDLLLVAWANGNQIVSSTRWATGYVQPTAYTGTATLTTLPETTINSTHWKWVFRCQGCTEWNNGGGIDVTSQGVLAWAFSNVAVDDPSDPQSTFSEHTDFGFFGIDYSTAHSANYQNYLNGDSGNPTTTSTKPTSTSSSVTTGPTVSATPYDYIIVGAGPGGIIAADRLSEAGKKVLLLERGGPSTKQTGGTYVAPWATSSGLTKFDIPGLFESLFTDSNPFWWCKDITVFAGCLVGGGTSVNGALYWYPNDGDFSSSVGWPSSWTNHAPYTSKLSSRLPSTDHPSTDGQRYLEQSFNVVSQLLKGQGYNQATINDNPNYKDHVFGYSAFDFLNGKRAGPVATYLQTALARPNFTFKTNVMVSNVVRNGSQILGVQTNDPTLGPNGFIPVTPKGRVILSAGAFGTSRILFQSGIGPTDMIQTVQSNPTAAAALPPQNQWINLPVGMNAQDNPSINLVFTHPSIDAYENWADVWSNPRPADAAQYLANQSGVFAGASPKLNFWRAYSGSDGFTRYAQGTVRPGAASVNSSLPYNASQIFTITVYLSTGIQSRGRIGIDAALRGTVLTPPWLVNPVDKTVLLQALHDVVSNIGSIPGLTMITPDVTQTLEEYVDAYDPATMNSNHWVSSTTIGSSPQSAVVDSNVKVFGTNNLFIVDAGIIPHLPTGNPQGTLMSAAEQAAAKILALAGGP
Regarding B1, the Isoelectric point is reported as 4.2, the “Optimal pH” value is 5.0 and the Optimal temperature is 50 °C. Besides, where the note is “listed as cellobiose dehydrogenase derived from Phanerochaete chrysosporium”, the Isoelectric point result is on record as “about 4.2”.
